SEAP activity in the medium of transfected cells (mammalian two-hybrid system) and Kd data for seven molecules are collected here from patent US20140235698A1, “RNA Aptamer Specifically Binding to Carcinoembryonic Antigen and Use thereof” (POSCO, published 2014).

The target in series [1] is DR5 cloned in the pVP16 vector as an activation-domain fusion (UniProt O14763). Description: cell-based or functional assay.
Series [2] has as its target T1, ACEA (CEA/CEACAM5 A1 domain to B3 domain, N domain deleted) (Homo sapiens, UniProt P06731 P06731:145-675). The series can be described thus: SPR; Biacore 2000. The settings on record: tags: pET28a(+), Ni-NTA (His), E. coli BL21. Here is the method:
(§1) To measure the affinity of RNA aptamer to CEA, SPR analysis was performed with Biacore 2000 (GE healthcare) device. Various concentrations of RNAs (Trunc. GROUP 1-1 & 1-2 and Mutant GROUP 1-1 & 1-2, Loop-only, Library) were flowed on NCEA and ACEA to measure the binding affinity, which is shown in the following TABLE 4 and FIG. 4.
For orientation: In SPR one partner is held on a chip, and binding of the other changes the refractive index at the surface.

The target in series [3] is T2, NCEA (CEA/CEACAM5 N domain to B3 domain) (Homo sapiens, UniProt P06731 P06731:35-675). Description: SPR; Biacore 2000; loop mutant, weakened or no binding per text. The settings on record: tags: pET28a(+), Ni-NTA (His), E. coli BL21. Here is the method:
as §1

Series [4] concerns the target T2, NCEA (CEA/CEACAM5 N domain to B3 domain). The series can be described thus: SPR; Biacore 2000. The settings on record: tags: pET28a(+), Ni-NTA (His), E. coli BL21; hairpin-loop (predicted). The procedure: as §1
Series [5] shares this target. Description: SPR; Biacore 2000; GROUP I member tested not specified (SEQ 1-12). The settings on record: tags: pET28a(+), Ni-NTA (His), E. coli BL21. The procedure: (§2) To measure the affinity of RNA to CEA, SPR analysis was performed with Biacore 2000 (GE healthcare) device. Various concentrations of RNAs (GROUP 1, 2, 3 and library in FIG. 2) were flowed on NCEA and ACEA to measure the binding affinity.
(§3) The above value is measured using BIAevaluation program (which is used to analyze graph obtained from BIAcore device).

The target of series [6] is T1, ACEA (CEA/CEACAM5 A1 domain to B3 …). Described as above. The settings on record: tags: pET28a(+), Ni-NTA (His), E. coli BL21. The procedure: as §2, §3

T2 sequence (P06731 35-675, one chain of several): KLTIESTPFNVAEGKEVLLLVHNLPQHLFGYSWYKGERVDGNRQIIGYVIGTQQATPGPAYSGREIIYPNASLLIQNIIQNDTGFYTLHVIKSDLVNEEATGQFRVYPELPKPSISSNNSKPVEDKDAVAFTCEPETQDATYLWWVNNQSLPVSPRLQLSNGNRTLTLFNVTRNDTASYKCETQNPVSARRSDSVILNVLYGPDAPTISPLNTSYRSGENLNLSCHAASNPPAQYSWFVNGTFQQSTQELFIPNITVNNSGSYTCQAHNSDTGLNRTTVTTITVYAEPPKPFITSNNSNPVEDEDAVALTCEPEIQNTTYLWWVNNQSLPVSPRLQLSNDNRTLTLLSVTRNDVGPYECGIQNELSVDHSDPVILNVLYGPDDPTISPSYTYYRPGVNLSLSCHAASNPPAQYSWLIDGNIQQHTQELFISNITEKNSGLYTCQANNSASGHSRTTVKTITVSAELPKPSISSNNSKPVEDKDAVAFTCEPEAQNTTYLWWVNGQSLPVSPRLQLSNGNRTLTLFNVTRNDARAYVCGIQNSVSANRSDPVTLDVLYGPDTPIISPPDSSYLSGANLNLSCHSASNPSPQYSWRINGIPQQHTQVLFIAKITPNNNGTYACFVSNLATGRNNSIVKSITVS
T1 sequence (P06731 145-675, stated change not applied, one chain of several): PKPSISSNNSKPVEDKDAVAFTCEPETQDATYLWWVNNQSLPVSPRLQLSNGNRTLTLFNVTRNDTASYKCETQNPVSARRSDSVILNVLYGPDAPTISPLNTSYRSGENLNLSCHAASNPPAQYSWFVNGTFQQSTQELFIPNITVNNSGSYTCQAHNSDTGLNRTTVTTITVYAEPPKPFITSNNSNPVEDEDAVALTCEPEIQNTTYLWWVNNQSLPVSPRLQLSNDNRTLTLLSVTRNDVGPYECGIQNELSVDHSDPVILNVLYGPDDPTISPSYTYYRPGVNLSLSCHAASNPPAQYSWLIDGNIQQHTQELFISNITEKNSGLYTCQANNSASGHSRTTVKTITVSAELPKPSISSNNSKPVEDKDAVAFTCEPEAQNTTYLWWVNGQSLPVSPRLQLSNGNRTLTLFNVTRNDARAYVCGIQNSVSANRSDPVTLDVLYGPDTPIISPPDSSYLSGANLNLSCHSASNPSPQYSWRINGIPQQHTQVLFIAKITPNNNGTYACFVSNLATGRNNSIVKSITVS

With “NCEA (protein consisting of N domain to B3 domain of CEA, CEACAM5) cloned in the pM vector as a GAL4 DNA-BD fusion (from UniProt P04386 1-147; P06731 35-676)”, the SEAP activity in the medium of transfected cells (mammalian two-hybrid system) in series [1] worked out at 2.5 fold.

Broadly, the Kd is the equilibrium constant for the complex coming apart. GGCUAGAAUAAUAAUAAGAAAAC (ssRNA, 2'-F pyrimidines (C and U)) [Loop only]: in series [2], the dissociation constant Kd was 1100 nM.

As to GCGGAAGCGUGCUGGGCUAGGGCGGCGGCGGGAAAACCAGUACUUUCGU (ssRNA, 2'-F pyrimidines (C and U)) [Mutant GROUP 1-1 (m19-1, mutant YJ-1)], the Kd was determined as 1300 nM in series [3] and 790 nM in series [2].

Regarding GUGCUGGGCUAGGGCGGCGGCGGGAAAACCAGUAC (ssRNA, 2'-F pyrimidines (C and U)) [Mutant GROUP 1-2 (m19-2)], the results for the Kd in series [3] and in series [2] were 420 nM and 630 nM, respectively.

On to GCGGAAGCGUGCUGGGCUAGAAUAAUAAUAAGAAAACCAGUACUUUCGU (ssRNA, 2'-F pyrimidines (C and U)) [Truncated GROUP 1-1 (19-1, YJ-1)], for which the Kd in series [4] is 0.77 nM; in series [2] (hairpin-loop (predicted)), 600 nM.

B1: GROUP I RNA aptamer (ssRNA)
RNA: GGGAGAGCGGAAGCGUGCUGGGCUAGAAUAAUAAUAAGAAAACCAGUACUUUCGUGUCCCGGGAGGGUGCAUAACCCAGAGGUCGAUGGAUCC
modifications: 2'-F pyrimidines (C and U)
As to B1, the Kd in series [5] turned out to be 0.313 nM; in series [6], 3.22 nM.

Turning to GUGCUGGGCUAGAAUAAUAAUAAGAAAACCAGUAC (ssRNA, 2'-F pyrimidines (C and U)) [Truncated GROUP 1-2 (19-2)], the values for the Kd in series [4] and in series [2] (hairpin-loop (predicted)) were 4 nM and 590 nM, respectively.
